Experimental data reported in the RNAGym collection of RNA variant scans (doi:10.7554/elife.80360).

B1: Hairpin Ribozyme (parent)
chain: GUCCUCUUUCACGUGCGCGUGAAAGAGAGAAGUGAACCAGAGAAACACACGUUGUGGUAUAUUACCUGGUA

Variants of: B1
Assay: self-cleavage, relative activity (ratio to wild type); higher = more cleavage; co-transcriptional

| Variant | self-cleavage |
| --- | --- |
| A49U G51U | 0.135 |
| A49C A64U | 0.178 |
| A49C C66G | 0.301 |
| A49C C66U | 0.183 |
| C48G A64C | 0.242 |
| A49C A71U | 0.27 |
| C50G U55G | 0.368 |
| C50G U55A | 0.153 |
| C48G A59C | 0.119 |
| C50A G51U | 0.399 |
| A49G U55G | 0.498 |
| A49G U55C | 1.17 |
| A49U G57A | 0.192 |
| A49U G57U | 0.228 |
| A49C G56A | 0.17 |
| C50A C66G | 0.217 |
| C50A C66U | 0.15 |
| C50A U53C | 0.296 |
| A49G U60G | 0.547 |
| C50A U60A | 0.388 |
| C50G U63A | 0.177 |
| C48U U55C | 0.132 |
| C48G U60A | 0.121 |
| C48G U60G | 0.108 |

| Variant | self-cleavage |
| --- | --- |
| A49G C50A | 0.249 |
| A49G C50U | 0.129 |
| C48G U58C | 0.143 |
| C50A U63C | 0.198 |
| C50G U62A | 0.213 |
| A49U U62G | 0.0483 |
| C50A G68U | 0.15 |
| C50A G68A | 0.143 |
| C50A G68C | 0.178 |
| C48U G56A | 0.222 |
| A49C | 0.161 |
| A49U | 0.179 |
| A49G | 0.57 |
| C50G C66A | 0.193 |
| A49C U62A | 0.15 |
| C50A | 0.283 |
| C50G | 0.275 |
| A49G G51C | 0.495 |
| A49G G51A | 0.651 |
| A49C U55G | 0.343 |
| A49C U55C | 0.273 |
| A49C G51A | 0.0757 |
| C48U G54A | 0.163 |
| C48U G54C | 0.129 |

| Variant | self-cleavage |
| --- | --- |
| C48U G54U | 0.203 |
| A49G G68U | 0.215 |
| C48G U67C | 0.117 |
| C48G U67A | 0.259 |
| C48U C50U | 0.0683 |
| C48U C50G | 0.109 |
| C48U C50A | 0.0417 |
| C50G A61C | 0.0643 |
| C50G A61G | 0.175 |
| C50G A61U | 0.248 |
| A49U G69U | 0.193 |
| A49U G69C | 0.139 |
| C48G A49G | 0.123 |
| C48G A49U | 0.104 |
| C50A G57A | 0.138 |
| A49G U63G | 0.158 |
| A49C A59U | 0.287 |
| C48G G69A | 0.224 |
| C48G G69U | 0.0941 |
| C48G G69C | 0.0597 |
| C50G G56U | 0.124 |
| C50G G56A | 0.226 |
| C50G G56C | 0.0923 |
| A49C U63G | 0.153 |

| Variant | self-cleavage |
| --- | --- |
| A49C U63A | 0.0427 |
| A49U U52A | 0.209 |
| A49C A61U | 0.104 |
| C48G C66G | 0.105 |
| A49G G56A | 0.204 |
| C48U U53C | 0.233 |
| C48G U63C | 0.0816 |
| A49U A64U | 0.0352 |
| A49C C65G | 0.168 |
| A49C C65A | 0.225 |
| A49G U67A | 0.208 |
| A49U A59C | 0.179 |
| A49U A59U | 0.178 |
| C50G A59U | 0.112 |
| C48G U53C | 0.206 |
| C48G U53A | 0.101 |
| A49U G68C | 0.14 |
| A49U G68U | 0.128 |
| C48G G54C | 0.189 |
| C48G G54A | 0.172 |
| A49G G57A | 0.111 |
| A49G G57C | 0.0948 |
| A49U U63C | 0.172 |
| C50G G68C | 0.0881 |

| Variant | self-cleavage |
| --- | --- |
| A49U U60C | 0.331 |
| C48U G51A | 0.082 |
| C48U G51C | 0.0415 |
| A49U A61C | 0.0823 |
| C48U U52G | 0.311 |
| C48U U52A | 0.138 |
| C50G G57A | 0.0857 |
| C50G G57C | 0.181 |
| C48U C66G | 0.138 |
| C48U C66U | 0.194 |
| C48U G69C | 0.124 |
| C48U G69U | 0.182 |
| C50G U53C | 0.327 |
| C48U G57U | 0.204 |
| C48U G57C | 0.163 |
| A49C U60C | 0.165 |
| A49C U60A | 0.333 |
| A49G A61C | 0.0946 |
| A49G C66U | 0.258 |
| C50G U60A | 0.268 |
| C50G U60G | 0.158 |
| A49U U70G | 0.39 |
| A49C G54C | 0.187 |
| C50A U67G | 0.118 |

| Variant | self-cleavage |
| --- | --- |
| C50A U67C | 0.0958 |
| C50A G54U | 0.97 |
| C48U U60G | 0.125 |
| C48U U60C | 0.389 |
| C48U A61U | 0.151 |
| C50A G69C | 0.12 |
| C48G U52G | 0.225 |
| C50A A59G | 0.0618 |
| C50A A59C | 0.167 |
| A49C U58C | 0.316 |
| A49C U58G | 0.286 |
| A49U A71U | 0.146 |
| A49U A71G | 0.221 |
| C50A A61C | 0.173 |
| C50G A64G | 0.164 |
| A49C G57C | 0.121 |
| A49G C65G | 0.184 |
| A49G C65U | 0.107 |
| C48U C65G | 0.0909 |
| C48U C65A | 0.086 |
| A49G U58G | 0.45 |
| A49G U58C | 0.532 |
| C48G A61U | 0.0929 |
| A49U U55G | 0.366 |

| Variant | self-cleavage |
| --- | --- |
| A49C U52C | 0.16 |
| C48U A49C | 0.225 |
| A49U C65G | 0.171 |
| C48G U70C | 0.302 |
| C50G U52A | 0.216 |
| C50A A71G | 0.253 |
| A49C C50G | 0.129 |
| C48G G57C | 0.169 |
| A49C U70G | 0.0833 |
| A49C U70C | 0.0597 |
| A49C U70A | 0.157 |
| A49G A64C | 0.248 |
| A49G A64G | 0.155 |
| C48U U63A | 0.173 |
| C50A G56C | 0.104 |
| C50A G56U | 0.274 |
| C50G G51A | 0.249 |
| C50G G51U | 0.375 |
| C50G C65G | 0.161 |
| C48U U58C | 0.333 |
| A49U G54C | 0.28 |
| C50A A64C | 0.124 |
| C50A A64U | 0.13 |
